According to article PMC6208366 (2018):
Like-named read-outs stand apart in the source and are kept apart here. One block for each binder: values may come before it.

How the values were obtained:
[1] = molecular target: T1, full-length human Tau (htau40, 441 residues, 2N4R) (human, UniProt P10636-8 1-441)
human full-length Hsp90β = human full-length Hsp90β (human, UniProt P08238 1-724); experiment: ITC
[2] = molecular target: T1, full-length human Tau (htau40, 441 …); experiment: Hsp90 in presence of FKBP51 (1:1)
[3] = molecular target: T1, full-length human Tau (htau40, 441 …); remark: listed apart in the source

Chain of human full-length Hsp90β (P08238 whole entry): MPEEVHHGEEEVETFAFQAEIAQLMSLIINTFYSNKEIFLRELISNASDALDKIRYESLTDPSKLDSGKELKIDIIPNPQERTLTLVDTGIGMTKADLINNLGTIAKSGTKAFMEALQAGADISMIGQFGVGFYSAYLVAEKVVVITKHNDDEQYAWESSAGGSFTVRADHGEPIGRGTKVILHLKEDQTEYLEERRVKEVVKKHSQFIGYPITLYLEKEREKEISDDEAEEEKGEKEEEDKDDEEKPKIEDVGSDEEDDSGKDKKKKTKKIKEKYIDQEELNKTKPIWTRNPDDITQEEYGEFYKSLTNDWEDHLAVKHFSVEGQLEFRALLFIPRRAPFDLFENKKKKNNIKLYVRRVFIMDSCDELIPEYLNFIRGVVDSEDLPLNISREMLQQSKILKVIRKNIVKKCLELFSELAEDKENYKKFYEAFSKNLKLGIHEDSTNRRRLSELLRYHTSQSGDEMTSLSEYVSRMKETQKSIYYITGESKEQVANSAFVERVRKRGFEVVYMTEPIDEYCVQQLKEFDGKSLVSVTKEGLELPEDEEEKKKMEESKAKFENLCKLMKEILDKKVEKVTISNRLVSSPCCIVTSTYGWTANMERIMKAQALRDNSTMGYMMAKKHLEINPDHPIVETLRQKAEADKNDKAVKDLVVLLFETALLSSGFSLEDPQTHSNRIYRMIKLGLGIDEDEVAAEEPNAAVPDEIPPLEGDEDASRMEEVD

Kd [1]: 45.1 µM
Kd (human full-length Hsp90β): 0.249 µM
B1: full-length human FKBP51 (natural protein)
chain: MTTDEGAKNNEESPTATVAEQGEDITSKKDRGVLKIVKRVGNGEETPMIGDKVYVHYKGKLSNGKKFDSSHDRNEPFVFSLGKGQVIKAWDIGVATMKKGEICHLLCKPEYAYGSAGSLPKIPSNATLFFEIELLDFKGEDLFEDGGIIRRTKRKGEGYSNPNEGATVEIHLEGRCGGRMFDCRDVAFTVGEGEDHDIPIGIDKALEKMQREEQCILYLGPRYGFGEAGKPKFGIEPNAELIYEVTLKSFEKAKESWEMDTKEKLEQAAIVKEKGTVYFKGGKYMQAVIQYGKIVSWLEMEYGLSEKESKASESFLLAAFLNLAMCYLKLREYTKAVECCDKALGLDSANEKGLYRRGEAQLLMNEFESAKGDFEKVLEVNPQNKAARLQISMCQKKAKEHNERDRRIYANMFKKFAEQDAKEEANKAMGKKTSEGVTNEKGTDSQAMEEEKPEGHV

Kd [2]: 8.2 µM
B2: IANBD-labeled Hsp90 M362C/FKBP51 (1:1) complex (complex)
chain 1: not shown
chain 2: MTTDEGAKNNEESPTATVAEQGEDITSKKDRGVLKIVKRVGNGEETPMIGDKVYVHYKGKLSNGKKFDSSHDRNEPFVFSLGKGQVIKAWDIGVATMKKGEICHLLCKPEYAYGSAGSLPKIPSNATLFFEIELLDFKGEDLFEDGGIIRRTKRKGEGYSNPNEGATVEIHLEGRCGGRMFDCRDVAFTVGEGEDHDIPIGIDKALEKMQREEQCILYLGPRYGFGEAGKPKFGIEPNAELIYEVTLKSFEKAKESWEMDTKEKLEQAAIVKEKGTVYFKGGKYMQAVIQYGKIVSWLEMEYGLSEKESKASESFLLAAFLNLAMCYLKLREYTKAVECCDKALGLDSANEKGLYRRGEAQLLMNEFESAKGDFEKVLEVNPQNKAARLQISMCQKKAKEHNERDRRIYANMFKKFAEQDAKEEANKAMGKKTSEGVTNEKGTDSQAMEEEKPEGHV
modifications: IANBD amide fluorescent dye on Cys362 (M362C)

Kd [3]: 4.2 µM
B3: IANBD-labeled Hsp90 M362C (natural protein)
chain: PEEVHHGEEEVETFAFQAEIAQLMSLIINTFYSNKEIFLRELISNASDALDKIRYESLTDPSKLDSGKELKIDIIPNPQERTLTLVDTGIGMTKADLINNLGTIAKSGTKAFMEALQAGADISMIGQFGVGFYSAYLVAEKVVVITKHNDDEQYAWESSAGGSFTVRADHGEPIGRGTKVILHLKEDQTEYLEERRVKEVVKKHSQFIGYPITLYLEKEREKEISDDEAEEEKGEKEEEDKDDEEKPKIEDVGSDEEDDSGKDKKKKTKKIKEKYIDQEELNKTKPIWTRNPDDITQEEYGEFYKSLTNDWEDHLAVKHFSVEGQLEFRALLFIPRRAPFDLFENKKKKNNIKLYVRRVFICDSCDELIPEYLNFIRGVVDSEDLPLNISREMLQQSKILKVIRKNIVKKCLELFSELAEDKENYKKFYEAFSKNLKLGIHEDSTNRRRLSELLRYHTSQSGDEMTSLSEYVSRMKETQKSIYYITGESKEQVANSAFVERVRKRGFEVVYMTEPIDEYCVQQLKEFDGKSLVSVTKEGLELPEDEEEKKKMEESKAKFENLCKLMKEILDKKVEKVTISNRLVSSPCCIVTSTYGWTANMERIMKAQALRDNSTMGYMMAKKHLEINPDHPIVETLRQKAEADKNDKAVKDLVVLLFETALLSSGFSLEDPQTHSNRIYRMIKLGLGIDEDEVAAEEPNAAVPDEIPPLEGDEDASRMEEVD
modifications: IANBD amide fluorescent dye on Cys362 (M362C)
